Source: paper PMC6509284, “Aurora B-INCENP Localization at Centromeres/Inner Kinetochores Is Required for Chromosome Bi-orientation in Budding Yeast” (Current Biology, 2019)

B1: GST-Sli15 (393-698 aa) (domain or fragment, budding yeast (S. cerevisiae), UniProt P38283 393-698, looked up)
chain: KLTTHKKLAIIAEQKKKSKHSSDVHKTGSRPHSISPTKISVDSSSPSKEVKNYYQSPVRGYLRPTKASISPNKNKNLTTSQTPHRLKIKEKTLRKLSPNIADISKPESRKSKNYRLTNLQLLPPAEAERDDLKKKFDKRLSGIMRSQQEHHRRKQEKQKRMSHLEQDLKKQTSFSNDYKDIRLKESLAPFDNHVRDTINKNTAFSTDNILATINTVDHREIIGNVTPKIASVNDSLPEINTDSEDEASVTLAAWAKSPYLQEQLIRQQDINPQTIFGPIPPLHTDEIFPNPRLNRLKPRQIVPKRS
notes: Sli15 (yeast INCENP), budding yeast, residues 393-698; Printed size 60 kDa; also called pGEX6P-1-GST-SLI15 (393-698); source: E. coli RosettaGami2, purified (GSTrap FF, Superdex 200)
B2: GST-Sli15 (1-401 aa) (domain or fragment, budding yeast (S. cerevisiae), UniProt P38283 1-401, looked up)
chain: MDWAIKAARKKTQRKPGSTRSIIETLDDLNNLTTDAHSEINQRLYESSEWLRNNVYMNTLKYEDKKMEESLISPENTHNKMDVEFPKMKGEYELSNSQNDAAKDVTKTPRNGLHNDKSITPKSLRRKEVTEGMNRFSIHDTNKSPVEPLNSVKVDANESEKSSPWSPYKVEKVLRESSKTSESPINTKRFDNQTWAAKEEMENEPILQALKKAESVKVKPPPNSGIARSQRRSNMFVPLPNKDPLIIQHIPPTKSSGSIPKVRTVKESPIAFKKKSTINSPAIRAVENSDTAGSTKASSVFDRLSSIPTKSFENKISRGNVGHKYSSSSIDLTGSPMKKVSQKFKSINSTDTDMQEALRDIFSVKNKITKNNSPKGKNSRKSSIPRFDKTSLKLTTHKKLA
notes: Printed size 72 kDa; source: E. coli RosettaGami2, purified (GSTrap FF, Superdex 200)

Biological target: T1, recombinant COMA (Ctf19-Okp1-Mcm21-Ame1) inner kinetochore sub-complex (budding yeast (S. cerevisiae), UniProt P53298 1-406; P38313 1-324; Q02732 1-369; Q06675 1-368)
T1 construct: Okp1, budding yeast, essential COMA component; His-Okp1 printed as 49 kDa; Ame1, budding yeast, essential COMA component; printed as 37 kDa; Ctf19, budding yeast, non-essential COMA component; 'coding regions' cloned; printed as 43 kDa; Mcm21, budding yeast, non-essential COMA component; also called COMA components; source: E. coli RosettaGami2(DE3)pLysS, four subunits co-expressed, purified …
Assay: pull-down; GST fusion proteins incubated with purified COMA in 50 mM HEPES-NaOH pH 7.4, 150 mM NaCl, 5% glycerol, 0.05% Igepal, 2 mM DTT, 0.5 mM EDTA, 20 min at 4°C, then 1 h on GST-Trap Agarose at 4°C, three washes; Coomassie blue staining, anti-His western blot and mass spectrometry
Details: both partners purified

T1 sequence (P53298 whole entry, chain 1 of 4): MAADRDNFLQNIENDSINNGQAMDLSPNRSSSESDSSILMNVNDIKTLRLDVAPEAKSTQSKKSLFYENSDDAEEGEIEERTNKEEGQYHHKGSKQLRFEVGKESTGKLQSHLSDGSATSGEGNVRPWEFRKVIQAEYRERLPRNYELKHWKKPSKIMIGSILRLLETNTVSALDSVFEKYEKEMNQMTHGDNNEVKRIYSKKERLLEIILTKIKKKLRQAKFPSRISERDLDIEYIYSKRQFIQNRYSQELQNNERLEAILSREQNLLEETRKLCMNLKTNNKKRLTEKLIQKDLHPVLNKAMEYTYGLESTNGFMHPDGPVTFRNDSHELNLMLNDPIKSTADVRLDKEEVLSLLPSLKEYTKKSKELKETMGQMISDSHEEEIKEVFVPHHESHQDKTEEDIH
T1 sequence (P38313 whole entry, chain 2 of 4): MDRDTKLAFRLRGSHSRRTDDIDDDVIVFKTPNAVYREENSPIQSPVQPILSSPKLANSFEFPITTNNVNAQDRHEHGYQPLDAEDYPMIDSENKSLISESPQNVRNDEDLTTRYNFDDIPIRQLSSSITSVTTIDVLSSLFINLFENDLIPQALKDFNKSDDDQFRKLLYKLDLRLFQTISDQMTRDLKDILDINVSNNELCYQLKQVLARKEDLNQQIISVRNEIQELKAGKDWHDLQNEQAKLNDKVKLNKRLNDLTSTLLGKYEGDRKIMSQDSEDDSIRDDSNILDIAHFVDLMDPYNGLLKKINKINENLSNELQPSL
T1 sequence (Q02732 whole entry, chain 3 of 4): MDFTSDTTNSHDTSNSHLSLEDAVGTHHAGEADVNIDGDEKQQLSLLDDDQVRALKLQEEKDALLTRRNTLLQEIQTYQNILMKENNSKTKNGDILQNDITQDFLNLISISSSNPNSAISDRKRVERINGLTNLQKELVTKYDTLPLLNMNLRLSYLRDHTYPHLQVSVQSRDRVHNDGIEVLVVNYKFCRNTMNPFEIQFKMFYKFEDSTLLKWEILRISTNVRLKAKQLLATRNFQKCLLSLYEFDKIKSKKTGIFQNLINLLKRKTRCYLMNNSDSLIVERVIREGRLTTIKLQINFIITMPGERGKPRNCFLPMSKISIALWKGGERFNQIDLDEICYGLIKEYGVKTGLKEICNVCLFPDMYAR
T1 sequence (Q06675 whole entry, chain 4 of 4): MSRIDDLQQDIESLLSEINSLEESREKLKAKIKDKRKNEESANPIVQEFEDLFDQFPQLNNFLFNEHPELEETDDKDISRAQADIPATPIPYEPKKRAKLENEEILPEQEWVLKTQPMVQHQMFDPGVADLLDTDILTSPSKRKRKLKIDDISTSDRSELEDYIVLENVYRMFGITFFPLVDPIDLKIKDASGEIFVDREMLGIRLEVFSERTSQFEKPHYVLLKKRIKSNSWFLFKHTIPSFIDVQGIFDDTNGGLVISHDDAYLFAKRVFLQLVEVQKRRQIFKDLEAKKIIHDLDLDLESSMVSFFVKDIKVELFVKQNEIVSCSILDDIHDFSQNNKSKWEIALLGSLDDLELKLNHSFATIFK

Binder	binding result
B1	binds
B2	binds
